Experimental data as given in US20160024487.

Key:
[1] = test system: T1, Lys(Dnp)-ATNATX4X3PRIVGG-Lys(Abz), X4 = E, X3 = H
T1 sequence: KATNATEHPRIVGGK

[2] = test system: T2, Lys(Dnp)-ATNATX4X3PRIVGG-Lys(Abz), X4 = G, X3 = G
T2 sequence: KATNATGGPRIVGGK

[3] = test system: T3, Lys(Dnp)-ATNATX4X3PRIVGG-Lys(Abz), X4 = G, X3 = S
T3 sequence: KATNATGSPRIVGGK

[4] = test system: T4, Lys(Dnp)-ATNATX4X3PRIVGG-Lys(Abz), X4 = P, X3 = N
T4 sequence: KATNATPNPRIVGGK

[5] = test system: T5, Lys(Dnp)-ATNATX4X3PRIVGG-Lys(Abz), X4 = N, X3 = Q
T5 sequence: KATNATNQPRIVGGK

[6] = test system: T6, Lys(Dnp)-ATNATX4X3PRIVGG-Lys(Abz), X4 = H, X3 = S
T6 sequence: KATNATHSPRIVGGK

[7] = test system: T7, Lys(Dnp)-ATNATX4X3PRIVGG-Lys(Abz), X4 = S, X3 = R
T7 sequence: KATNATSRPRIVGGK

[8] = test system: T8, Lys(Dnp)-ATNATX4X3PRIVGG-Lys(Abz), X4 = H, X3 = F
T8 sequence: KATNATHFPRIVGGK

[9] = test system: T9, Lys(Dnp)-ATNATX4X3PRIVGG-Lys(Abz), X4 = S, X3 = H
T9 sequence: KATNATSHPRIVGGK

[10] = test system: T10, Lys(Dnp)-ATNATX4X3PRIVGG-Lys(Abz), X4 = P, X3 = E
T10 sequence: KATNATPEPRIVGGK

[11] = test system: T11, Lys(Dnp)-ATNATX4X3PRIVGG-Lys(Abz), X4 = S, X3 = V
T11 sequence: KATNATSVPRIVGGK

[12] = test system: T12, Lys(Dnp)-ATNATX4X3PRIVGG-Lys(Abz), X4 = S, X3 = P
T12 sequence: KATNATSPPRIVGGK

[13] = test system: T13, Lys(Dnp)-ATNATX4X3PRIVGG-Lys(Abz), X4 = N, X3 = M
T13 sequence: KATNATNMPRIVGGK

[14] = test system: T14, Lys(Dnp)-ATNATX4X3PRIVGG-Lys(Abz), X4 = E, X3 = T
T14 sequence: KATNATETPRIVGGK

[15] = test system: T15, Lys(Dnp)-ATNATX4X3PRIVGG-Lys(Abz), X4 = D, X3 = Y
T15 sequence: KATNATDYPRIVGGK

[16] = test system: T16, Lys(Dnp)-ATNATX4X3PRIVGG-Lys(Abz), X4 = G, X3 = Q
T16 sequence: KATNATGQPRIVGGK

[17] = test system: T17, Lys(Dnp)-ATNATX4X3PRIVGG-Lys(Abz), X4 = V, X3 = L
T17 sequence: KATNATVLPRIVGGK

[18] = test system: T18, Lys(Dnp)-ATNATX4X3PRIVGG-Lys(Abz), X4 = W, X3 = I
T18 sequence: KATNATWIPRIVGGK

[19] = test system: T19, Lys(Dnp)-ATNATX4X3PRIVGG-Lys(Abz), X4 = T, X3 = S
T19 sequence: KATNATTSPRIVGGK

[20] = test system: T20, Lys(Dnp)-ATNATX4X3PRIVGG-Lys(Abz), X4 = Q, X3 = T
T20 sequence: KATNATQTPRIVGGK

[21] = test system: T21, Lys(Dnp)-ATNATX4X3PRIVGG-Lys(Abz), X4 = T, X3 = A
T21 sequence: KATNATTAPRIVGGK

[22] = test system: T22, Lys(Dnp)-ATNATX4X3PRIVGG-Lys(Abz), X4 = S, X3 = S
T22 sequence: KATNATSSPRIVGGK

[23] = test system: T23, Lys(Dnp)-ATNATX4X3PRIVGG-Lys(Abz), X4 = S, X3 = G
T23 sequence: KATNATSGPRIVGGK

[24] = test system: T24, Lys(Dnp)-ATNATX4X3PRIVGG-Lys(Abz), X4 = G, X3 = F
T24 sequence: KATNATGFPRIVGGK

[25] = test system: T25, Lys(Dnp)-ATNATX4X3PRIVGG-Lys(Abz), X4 = G, X3 = Y
T25 sequence: KATNATGYPRIVGGK

[26] = test system: T26, Lys(Dnp)-ATNATX4X3PRIVGG-Lys(Abz), X4 = T, X3 = I
T26 sequence: KATNATTIPRIVGGK

[27] = test system: T27, Lys(Dnp)-ATNATX4X3PRIVGG-Lys(Abz), X4 = S, X3 = I
T27 sequence: KATNATSIPRIVGGK

[28] = test system: T28, Lys(Dnp)-ATNATX4X3PRIVGG-Lys(Abz), X4 = A, X3 = E
T28 sequence: KATNATAEPRIVGGK

[29] = test system: T29, Lys(Dnp)-ATNATX4X3PRIVGG-Lys(Abz), X4 = G, X3 = M
T29 sequence: KATNATGMPRIVGGK

[30] = test system: T30, Lys(Dnp)-ATNATX4X3PRIVGG-Lys(Abz), X4 = G, X3 = H
T30 sequence: KATNATGHPRIVGGK

[31] = test system: T31, Lys(Dnp)-ATNATX4X3PRIVGG-Lys(Abz), X4 = K, X3 = D
T31 sequence: KATNATKDPRIVGGK

[32] = test system: T32, Lys(Dnp)-ATNATX4X3PRIVGG-Lys(Abz), X4 = Y, X3 = V
T32 sequence: KATNATYVPRIVGGK

[33] = test system: T33, Lys(Dnp)-ATNATX4X3PRIVGG-Lys(Abz), X4 = Q, X3 = Q
T33 sequence: KATNATQQPRIVGGK

[34] = test system: T34, Lys(Dnp)-ATNATX4X3PRIVGG-Lys(Abz), X4 = K, X3 = F
T34 sequence: KATNATKFPRIVGGK

[35] = test system: T35, Lys(Dnp)-ATNATX4X3PRIVGG-Lys(Abz), X4 = S, X3 = D
T35 sequence: KATNATSDPRIVGGK

[36] = test system: T36, Lys(Dnp)-ATNATX4X3PRIVGG-Lys(Abz), X4 = S, X3 = Q
T36 sequence: KATNATSQPRIVGGK

[37] = test system: T37, Lys(Dnp)-ATNATX4X3PRIVGG-Lys(Abz), X4 = Q, X3 = L
T37 sequence: KATNATQLPRIVGGK

[38] = test system: T38, Lys(Dnp)-ATNATX4X3PRIVGG-Lys(Abz), X4 = G, X3 = A
T38 sequence: KATNATGAPRIVGGK

[39] = test system: T39, Lys(Dnp)-ATNATX4X3PRIVGG-Lys(Abz), X4 = N, X3 = H
T39 sequence: KATNATNHPRIVGGK

Substance: Human plasma purified Factor Xa
- FXa kcat/KM [1]: 7.7 M⁻¹ s⁻¹
- FXa kcat/KM [2]: 16 M⁻¹ s⁻¹
- FXa kcat/KM [3]: 49 M⁻¹ s⁻¹
- FXa kcat/KM [4]: 580 M⁻¹ s⁻¹
- FXa kcat/KM [5]: 27 M⁻¹ s⁻¹
- FXa kcat/KM [6]: 60 M⁻¹ s⁻¹
- FXa kcat/KM [7]: 130 M⁻¹ s⁻¹
- FXa kcat/KM [8]: 42 M⁻¹ s⁻¹
- FXa kcat/KM [9]: 24 M⁻¹ s⁻¹
- FXa kcat/KM [10]: 1000 M⁻¹ s⁻¹
- FXa kcat/KM [11]: 38 M⁻¹ s⁻¹
- FXa kcat/KM [12]: 13 M⁻¹ s⁻¹
- FXa kcat/KM [13]: 27 M⁻¹ s⁻¹
- FXa kcat/KM [14]: 7.9 M⁻¹ s⁻¹
- FXa kcat/KM [15]: 11 M⁻¹ s⁻¹
- FXa kcat/KM [16]: 94 M⁻¹ s⁻¹
- FXa kcat/KM [17]: 330 M⁻¹ s⁻¹
- FXa kcat/KM [18]: 180 M⁻¹ s⁻¹
- FXa kcat/KM [19]: 16 M⁻¹ s⁻¹
- FXa kcat/KM [20]: 920 M⁻¹ s⁻¹
- FXa kcat/KM [21]: 20 M⁻¹ s⁻¹
- FXa kcat/KM [22]: 40 M⁻¹ s⁻¹
- FXa kcat/KM [23]: 24 M⁻¹ s⁻¹
- FXa kcat/KM [24]: 35 M⁻¹ s⁻¹
- FXa kcat/KM [25]: 34 M⁻¹ s⁻¹
- FXa kcat/KM [26]: 63 M⁻¹ s⁻¹
- FXa kcat/KM [27]: 55 M⁻¹ s⁻¹
- FXa kcat/KM [28]: 180 M⁻¹ s⁻¹
- FXa kcat/KM [29]: 52 M⁻¹ s⁻¹
- FXa kcat/KM [30]: 58 M⁻¹ s⁻¹
- FXa kcat/KM [31]: 45 M⁻¹ s⁻¹
- FXa kcat/KM [32]: 49 M⁻¹ s⁻¹
- FXa kcat/KM [33]: 1400 M⁻¹ s⁻¹
- FXa kcat/KM [34]: 35 M⁻¹ s⁻¹
- FXa kcat/KM [35]: 10 M⁻¹ s⁻¹
- FXa kcat/KM [36]: 45 M⁻¹ s⁻¹
- FXa kcat/KM [37]: 480 M⁻¹ s⁻¹
- FXa kcat/KM [38]: 50 M⁻¹ s⁻¹
- FXa kcat/KM [39]: 15 M⁻¹ s⁻¹
